Data as given in patent US20140328850A1 (Amgen, published 2014).
No end group written: not given here.

What was measured:
apelin = apelin (UniProt Q9ULZ1 65-77, limits assumed); assay: cell-based or functional assay
apelin 12 = target: T1, apelin 12 (UniProt Q9ULZ1 66-77); assay: BIAcore solution equilibrium binding: Ab A pre-incubated with apelin 12, injected over immobilised biotin-labeled apelin; one-site homogeneous model
T1 construct: domain: apelin 12
T1 peptide (looked up): RPRLSHKGPMPF
Procedure: Binding affinity of Ab A was determined using BIAcore solution equilibrium binding analysis. Briefly, biotin-labeled apelin was immobilized at high density on a neutravidin surface. Ab A was incubated with apelin 12 at RT for over 4 hours before injected over the immobilized surfaces. The dissociation equilibrium constant (Kd) was obtained from a nonlinear regression analysis of the competition curve using a one-site homogeneous binding model (KinExATM Pro software).

apelin 12-2 = target: T2, apelin 12-2 (also: biotinylated, position not given here); assay: ELISA: biotinylated peptide captured on neutravidin plate, antibody detected with HRP goat anti-mouse Fc, OD650; one point per peptide, antibody concentration not given
T2 construct: also called peptide 11
T2 peptide: RPRLSHKGPMP
Procedure: (§1) The antibody binding site was mapped using an ELISA-based assay. Briefly, various biotinylated apelin peptides (SEQ ID NOs: 7-22) were captured onto neutravidin coated plates and incubated with apelin antibody. Bound antibody was detected with horseradish peroxidase-conjugated goat anti-mouse Fc in the presence of the chromogenic substrate. The absorbance was read at 650 nm. Ab A is believed to neutralize all active forms of apelin.

apelin 12-3 = target: T3, apelin 12-3 (also: biotinylated, position not given here); assay: as above
T3 construct: also called peptide 12
T3 peptide: RPRLSHKGPM
Procedure: as §1

apelin 12-4 = target: T4, apelin 12-4 (also: biotinylated, position not given here); assay: as above
T4 construct: also called peptide 13
T4 peptide: RPRLSHKGP
Procedure: as §1

apelin 12-5 = target: T5, apelin 12-5 (also: biotinylated, position not given here); assay: as above
T5 construct: also called peptide 14
T5 peptide: RPRLSHKG
Procedure: as §1

pyro13 C-blot = target: T6, pyro13 C-blot (N-terminal pGlu as printed; biotinylated; the sheet prints 'C-blot', meaning not explained); assay: as above
T6 construct: also called peptide 3
T6 peptide: ERPRLSHKGPMPF
Procedure: as §1

F13A = target: T7, F13A (also: biotinylated, position not given here); assay: as above
T7 construct: apelin 13 with A in place of the C-terminal F; also called peptide 4
T7 peptide: QRPRLSHKGPMPA
Procedure: as §1

apelin 11 = target: T8, apelin 11 (also: biotinylated, position not given here); assay: as above
T8 construct: also called peptide 6
T8 peptide: PRLSHKGPMPF
Procedure: as §1

IC50: inhibition of the apelin-induced change of cAMP (HTRF ratio 665/620) in CHOK1-human APJ cells, 6 nM apelin, 500 nM forskolin (apelin): 18.2 nM | Kd (apelin 12): 6 nM | binding result (apelin 12-2): binds | binding result (apelin 12-3): binds | binding result (apelin 12-4): binds | binding result (apelin 12-5): binds | binding result (pyro13 C-blot): binds | binding result (F13A): binds | binding result (apelin 11): binds
B1: antibody A (Ab A) (antibody, V domains shown)
VH: NVQLVESGGGLVKPGGSLKLSCVASGFIFSDYVMSWVRQTPEKRLEWVATISDGGIYTSYPDNIKGRFTISRDNANNKLYLQMSHLRSEDTAMYFCSRAAITSDDFDFWGQGTALTVSS
VL: DIVMSQSPSSLAVSAGEKVTMSCKSSQSLLDSRTRKNYLAWYQQKPGQSPKLLISWASIRESGVPDRFTGSGSGTDFTLSISSVQAEDLAVYYCKQSYYLLTFGAGTKLELKR
notes: also called apelin antibody; apelin Ab
